Assay results from the supplement of paper PMC10065799, “High-throughput profiling of sequence recognition by tyrosine kinases and SH2 domains using bacterial peptide display” (eLife, 2023).

What was measured:
AncSZ = assay: phosphorylation enrichment, bacterial display (enrichment ratio); higher = better substrate or ligand; peptides without Tyr show the background
EPHB1 = EPHB1 (UniProt P54762); assay: as above
EPHB2 = EPHB2 (UniProt P29323); assay: as above
FGFR1 = FGFR1 (UniProt P11362); assay: as above
FGFR3 = FGFR3 (UniProt P22607); assay: as above
Fer (mouse) = assay: as above
Fes = Fes (UniProt P07332); assay: as above
Fyn = Fyn (UniProt P06241); assay: as above
Hck = Hck (UniProt P08631); assay: as above
Jak2 = Jak2 (UniProt O60674); assay: as above
MERTK = MERTK (UniProt Q12866); assay: as above
c-Abl (mouse) = assay: as above
c-Src = assay: as above
Grb2 SH2 = Grb2 SH2 (UniProt P62993); assay: SH2 binding enrichment of the phosphorylated peptide, bacterial display (enrichment ratio); higher = better substrate or ligand; peptides without Tyr show the background
SHP2-C SH2 = assay: as above
c-Src SH2 = assay: as above
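For SH2 binding enrichment of the phosphorylated peptide, bacterial display in this document: peptide library displayed on the E. coli surface as eCPX fusions, selected cells deep-sequenced, score is each peptide's frequency after selection divided by its frequency in the input.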
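For phosphorylation enrichment, bacterial display in this document: 11-residue human phosphosite peptides and single-mutation variants displayed on the E. coli surface, counted by deep sequencing, each peptide's frequency after selection divided by its frequency in the unselected input library; frequency after pTyr selection over input frequency; kinase dosed for 20-30% of maximal phosphorylation in three min.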

Jak2, sequence (O60674 whole entry, looked up): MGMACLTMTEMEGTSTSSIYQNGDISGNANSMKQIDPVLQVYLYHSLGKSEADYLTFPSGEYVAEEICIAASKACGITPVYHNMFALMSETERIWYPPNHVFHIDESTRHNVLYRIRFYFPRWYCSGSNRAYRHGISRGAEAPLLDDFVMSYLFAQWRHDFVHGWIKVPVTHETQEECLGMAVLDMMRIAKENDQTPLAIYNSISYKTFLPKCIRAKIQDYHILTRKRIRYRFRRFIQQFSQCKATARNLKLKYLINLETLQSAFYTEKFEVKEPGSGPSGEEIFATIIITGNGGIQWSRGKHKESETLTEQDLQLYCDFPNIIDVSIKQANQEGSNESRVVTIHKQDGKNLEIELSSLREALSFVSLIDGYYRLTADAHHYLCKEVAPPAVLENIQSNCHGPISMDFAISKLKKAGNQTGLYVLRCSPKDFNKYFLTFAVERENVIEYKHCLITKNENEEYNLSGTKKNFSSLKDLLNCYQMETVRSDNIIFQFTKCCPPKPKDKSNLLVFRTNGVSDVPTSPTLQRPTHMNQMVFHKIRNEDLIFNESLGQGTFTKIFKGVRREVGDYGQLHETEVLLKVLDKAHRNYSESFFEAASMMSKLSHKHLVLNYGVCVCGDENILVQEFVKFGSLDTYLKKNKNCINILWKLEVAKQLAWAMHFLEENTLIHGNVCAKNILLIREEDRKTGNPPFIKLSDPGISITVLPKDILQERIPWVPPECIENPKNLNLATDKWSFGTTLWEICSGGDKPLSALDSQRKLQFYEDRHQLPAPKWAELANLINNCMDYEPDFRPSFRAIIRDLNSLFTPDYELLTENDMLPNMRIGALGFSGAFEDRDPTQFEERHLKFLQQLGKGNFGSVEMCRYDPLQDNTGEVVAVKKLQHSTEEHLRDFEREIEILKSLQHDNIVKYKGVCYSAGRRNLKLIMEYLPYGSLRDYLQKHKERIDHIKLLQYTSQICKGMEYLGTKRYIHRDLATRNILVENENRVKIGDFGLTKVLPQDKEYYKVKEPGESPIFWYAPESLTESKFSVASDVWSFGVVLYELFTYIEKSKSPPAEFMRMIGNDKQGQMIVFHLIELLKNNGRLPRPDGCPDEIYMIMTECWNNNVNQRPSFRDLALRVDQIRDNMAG
EPHB2, sequence (P29323 whole entry, looked up): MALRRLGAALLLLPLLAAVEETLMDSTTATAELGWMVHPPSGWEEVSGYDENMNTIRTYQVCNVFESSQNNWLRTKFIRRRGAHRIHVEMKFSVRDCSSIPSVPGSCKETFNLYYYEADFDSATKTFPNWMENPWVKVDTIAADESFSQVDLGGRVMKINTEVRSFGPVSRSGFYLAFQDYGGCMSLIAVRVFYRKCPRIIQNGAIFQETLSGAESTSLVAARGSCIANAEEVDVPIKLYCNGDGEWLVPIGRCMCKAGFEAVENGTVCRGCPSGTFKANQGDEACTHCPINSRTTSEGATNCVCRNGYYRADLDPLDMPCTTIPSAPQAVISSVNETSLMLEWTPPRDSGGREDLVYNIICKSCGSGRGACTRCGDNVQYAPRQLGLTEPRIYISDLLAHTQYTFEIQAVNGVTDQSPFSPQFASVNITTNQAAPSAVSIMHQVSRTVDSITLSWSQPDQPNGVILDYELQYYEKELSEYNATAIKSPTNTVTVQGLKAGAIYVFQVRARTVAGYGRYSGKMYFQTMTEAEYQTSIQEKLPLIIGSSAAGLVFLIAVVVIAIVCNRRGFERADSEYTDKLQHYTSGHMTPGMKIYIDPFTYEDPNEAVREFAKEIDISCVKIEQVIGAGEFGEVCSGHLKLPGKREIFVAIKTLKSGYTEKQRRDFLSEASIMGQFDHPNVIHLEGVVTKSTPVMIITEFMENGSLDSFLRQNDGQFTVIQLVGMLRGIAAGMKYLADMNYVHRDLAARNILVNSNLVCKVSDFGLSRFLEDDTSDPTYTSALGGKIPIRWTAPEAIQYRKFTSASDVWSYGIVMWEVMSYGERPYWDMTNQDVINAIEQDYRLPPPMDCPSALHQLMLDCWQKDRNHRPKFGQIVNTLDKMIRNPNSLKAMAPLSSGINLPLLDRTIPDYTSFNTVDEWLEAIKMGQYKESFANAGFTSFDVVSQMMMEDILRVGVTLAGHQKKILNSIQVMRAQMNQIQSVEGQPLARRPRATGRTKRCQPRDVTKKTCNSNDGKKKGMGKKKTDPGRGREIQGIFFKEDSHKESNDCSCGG
Fes, sequence (P07332 whole entry, looked up): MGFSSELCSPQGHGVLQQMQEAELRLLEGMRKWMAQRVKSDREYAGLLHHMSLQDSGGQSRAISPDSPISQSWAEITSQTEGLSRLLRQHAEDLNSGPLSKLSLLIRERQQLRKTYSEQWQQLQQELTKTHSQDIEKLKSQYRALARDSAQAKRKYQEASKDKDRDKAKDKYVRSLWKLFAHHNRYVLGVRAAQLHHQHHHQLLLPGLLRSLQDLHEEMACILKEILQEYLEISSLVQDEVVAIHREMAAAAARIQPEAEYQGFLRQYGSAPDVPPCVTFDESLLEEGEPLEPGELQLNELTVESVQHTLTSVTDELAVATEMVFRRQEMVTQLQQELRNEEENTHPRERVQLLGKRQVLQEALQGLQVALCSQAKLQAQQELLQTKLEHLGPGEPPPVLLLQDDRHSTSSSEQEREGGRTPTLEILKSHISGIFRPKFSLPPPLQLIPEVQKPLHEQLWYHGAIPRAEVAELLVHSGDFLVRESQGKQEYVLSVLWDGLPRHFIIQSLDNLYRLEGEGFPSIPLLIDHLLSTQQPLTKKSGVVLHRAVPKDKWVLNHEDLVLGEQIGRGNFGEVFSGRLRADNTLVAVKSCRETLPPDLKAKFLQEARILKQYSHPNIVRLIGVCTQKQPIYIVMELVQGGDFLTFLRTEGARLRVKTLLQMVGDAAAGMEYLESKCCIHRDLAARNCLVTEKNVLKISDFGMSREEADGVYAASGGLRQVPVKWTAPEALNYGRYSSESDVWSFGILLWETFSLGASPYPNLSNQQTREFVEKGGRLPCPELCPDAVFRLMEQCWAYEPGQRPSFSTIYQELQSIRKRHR
Fyn, sequence (P06241 whole entry, looked up): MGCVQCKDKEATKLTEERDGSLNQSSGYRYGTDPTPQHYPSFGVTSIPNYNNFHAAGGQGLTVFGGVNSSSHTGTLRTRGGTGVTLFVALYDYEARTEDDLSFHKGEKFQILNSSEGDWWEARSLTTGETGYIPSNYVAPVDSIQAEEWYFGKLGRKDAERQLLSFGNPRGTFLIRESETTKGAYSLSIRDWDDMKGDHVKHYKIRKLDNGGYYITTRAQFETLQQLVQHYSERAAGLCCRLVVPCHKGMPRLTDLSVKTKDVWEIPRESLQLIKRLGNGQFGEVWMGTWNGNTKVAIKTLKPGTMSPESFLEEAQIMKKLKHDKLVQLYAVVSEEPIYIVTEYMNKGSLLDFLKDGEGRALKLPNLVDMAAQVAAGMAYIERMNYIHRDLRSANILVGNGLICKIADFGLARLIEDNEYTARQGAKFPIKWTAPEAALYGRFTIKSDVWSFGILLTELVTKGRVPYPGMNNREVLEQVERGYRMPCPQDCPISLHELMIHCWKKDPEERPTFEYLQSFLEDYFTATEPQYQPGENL
MERTK, sequence (Q12866 whole entry, looked up): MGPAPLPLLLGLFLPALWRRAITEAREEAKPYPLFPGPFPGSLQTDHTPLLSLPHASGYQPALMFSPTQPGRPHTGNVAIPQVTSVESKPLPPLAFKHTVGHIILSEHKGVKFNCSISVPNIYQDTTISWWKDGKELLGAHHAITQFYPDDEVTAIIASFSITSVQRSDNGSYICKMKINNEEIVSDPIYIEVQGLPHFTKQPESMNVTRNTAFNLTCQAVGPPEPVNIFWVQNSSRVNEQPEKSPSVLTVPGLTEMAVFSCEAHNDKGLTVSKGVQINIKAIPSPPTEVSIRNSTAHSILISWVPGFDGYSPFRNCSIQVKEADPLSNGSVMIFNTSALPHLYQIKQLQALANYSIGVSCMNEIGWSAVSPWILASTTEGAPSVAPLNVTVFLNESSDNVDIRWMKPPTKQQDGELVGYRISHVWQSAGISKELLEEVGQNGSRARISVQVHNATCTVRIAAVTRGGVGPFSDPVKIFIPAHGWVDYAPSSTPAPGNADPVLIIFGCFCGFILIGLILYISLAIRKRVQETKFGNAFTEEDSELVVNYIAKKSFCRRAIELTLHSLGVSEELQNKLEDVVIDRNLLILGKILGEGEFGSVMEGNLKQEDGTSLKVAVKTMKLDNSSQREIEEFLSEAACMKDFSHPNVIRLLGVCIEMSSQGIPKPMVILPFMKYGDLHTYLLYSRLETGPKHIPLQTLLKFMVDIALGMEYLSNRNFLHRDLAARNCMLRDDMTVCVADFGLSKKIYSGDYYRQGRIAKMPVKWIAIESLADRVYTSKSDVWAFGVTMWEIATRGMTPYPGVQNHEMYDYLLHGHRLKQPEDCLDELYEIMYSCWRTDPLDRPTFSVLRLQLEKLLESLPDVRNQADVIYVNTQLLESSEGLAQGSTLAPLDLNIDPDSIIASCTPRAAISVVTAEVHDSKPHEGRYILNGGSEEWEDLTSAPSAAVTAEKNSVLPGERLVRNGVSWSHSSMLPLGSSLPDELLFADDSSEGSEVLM
Hck, sequence (P08631 whole entry, looked up): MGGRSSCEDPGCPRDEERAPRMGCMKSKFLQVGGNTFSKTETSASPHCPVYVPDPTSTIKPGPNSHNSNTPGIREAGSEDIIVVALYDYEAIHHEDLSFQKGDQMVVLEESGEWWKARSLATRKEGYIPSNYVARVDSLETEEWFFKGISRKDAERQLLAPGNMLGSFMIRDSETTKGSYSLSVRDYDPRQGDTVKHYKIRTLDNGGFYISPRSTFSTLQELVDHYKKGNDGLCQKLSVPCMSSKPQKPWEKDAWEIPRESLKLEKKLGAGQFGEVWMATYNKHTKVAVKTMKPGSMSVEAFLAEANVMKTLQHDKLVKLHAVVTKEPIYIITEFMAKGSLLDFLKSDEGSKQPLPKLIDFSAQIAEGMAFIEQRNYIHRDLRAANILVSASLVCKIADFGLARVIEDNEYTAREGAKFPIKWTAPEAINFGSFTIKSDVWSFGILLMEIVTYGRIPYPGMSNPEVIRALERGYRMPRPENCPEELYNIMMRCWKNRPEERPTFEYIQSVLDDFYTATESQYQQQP

Row | SH2 binding enrichment (Grb2 SH2) | SH2 binding enrichment (SHP2-C SH2) | SH2 binding enrichment (c-Src SH2) | Sequence | phosphorylation enrichment (AncSZ) | phosphorylation enrichment (EPHB1) | phosphorylation enrichment (EPHB2) | phosphorylation enrichment (FGFR1) | phosphorylation enrichment (FGFR3) | phosphorylation enrichment (Fer (mouse)) | phosphorylation enrichment (Fes) | phosphorylation enrichment (Fyn) | phosphorylation enrichment (Hck) | phosphorylation enrichment (Jak2) | phosphorylation enrichment (MERTK) | phosphorylation enrichment (c-Abl (mouse)) | phosphorylation enrichment (c-Src)
1 | 2.27 | 1.51 | 1.38 | MGRVKYGAYIN [GLB1_Y485_N484K] | 0.506 | 0.282 | 0.408 | 0.374 | 0.47 | 0.416 | 0.569 | 0.472 | 0.401 | 0.447 | 0.358 | 0.461 | 0.378
2 | 0.829 | 0.688 | 0.859 | MSFDRYMAICH [OR2A5_Y123_YF] | 0.897 | 0.868 | 0.669 | 0.567 | 0.68 | 0.557 | 1.08 | 0.494 | 0.527 | 0.878 | 0.498 | 0.69 | 0.497
3 | 0.828 | 0.67 | 0.488 | MSPPGYKLLTG [GJA1_Y286_V289L] | 0.625 | 0.542 | 0.891 | 0.515 | 0.599 | 0.474 | 0.756 | 0.454 | 0.405 | 0.669 | 0.465 | 0.731 | 0.503
4 | 2.87 | 0.739 | 1.24 | MSSLYYANTLF [HOXB7_Y6] | 1.32 | 10.7 | 12.8 | 6.15 | 5.82 | 5.33 | 1.01 | 4.32 | 5.94 | 3.08 | 10.8 | 8.46 | 4.4
5 | 0.779 | 0.687 | 0.993 | MSYDRYMAVCH [OR2A5_Y123_I126V] | 0.867 | 0.879 | 0.751 | 0.438 | 0.57 | 0.595 | 0.878 | 0.475 | 0.507 | 0.891 | 0.44 | 0.509 | 0.464
6 | 0.865 | 0.778 | 0.431 | MVSLFYGTALF [OR10C1_Y251] | 1.32 | 0.757 | 0.708 | 0.51 | 0.906 | 1.18 | 1.32 | 2.21 | 1.45 | 1.2 | 0.707 | 1.21 | 2.44
7 | 0.659 | 0.869 | 0.613 | MYRVQYNSSVD [LRFN1_Y458_Q455R] | 0.785 | 0.487 | 0.437 | 0.433 | 0.715 | 0.403 | 0.876 | 0.435 | 0.435 | 0.68 | 0.375 | 0.629 | 0.411
8 | 0.826 | 0.68 | 0.537 | NDFGNYNNQSS [HNRNPA1_Y318] | 0.523 | 0.392 | 0.352 | 0.417 | 0.419 | 0.322 | 0.695 | 0.333 | 0.417 | 0.49 | 0.285 | 0.874 | 0.343
9 | 0.925 | 0.625 | 0.48 | NESVDSRATFP [MET_Y1003_Y1003S] | 0.783 | 0.427 | 0.597 | 0.485 | 0.583 | 0.376 | 1.1 | 0.442 | 0.492 | 0.826 | 0.531 | 0.661 | 0.48

Further lines, the sequence ahead of its results:

Row | Sequence | SH2 binding enrichment (Grb2 SH2) | SH2 binding enrichment (SHP2-C SH2) | SH2 binding enrichment (c-Src SH2) | phosphorylation enrichment (AncSZ) | phosphorylation enrichment (EPHB1) | phosphorylation enrichment (EPHB2) | phosphorylation enrichment (FGFR1) | phosphorylation enrichment (FGFR3) | phosphorylation enrichment (Fer (mouse)) | phosphorylation enrichment (Fes) | phosphorylation enrichment (Fyn) | phosphorylation enrichment (Hck) | phosphorylation enrichment (Jak2) | phosphorylation enrichment (MERTK) | phosphorylation enrichment (c-Abl (mouse)) | phosphorylation enrichment (c-Src)
10 | MCVKSYTIHYS [F5_Y2153_Y2149C] | 0.811 | 0.592 | 0.472 | 1.12 | 0.682 | 0.569 | 0.513 | 0.878 | 0.636 | 1.26 | 0.517 | 0.552 | 0.942 | 0.459 | 0.726 | 0.45
11 | MDNQEYKDAFK [BRDT_Y331_YF] | 1.07 | 0.721 | 0.532 | 1.15 | 0.715 | 0.602 | 0.504 | 0.67 | 0.505 | 1.39 | 0.493 | 0.584 | 1.22 | 0.442 | 1.22 | 0.526
12 | MFFSKYDRDND [FGB_Y408_T407K] | 1.07 | 0.801 | 0.447 | 0.817 | 0.493 | 0.488 | 0.47 | 0.66 | 0.51 | 1.01 | 0.501 | 0.589 | 0.845 | 0.486 | 0.717 | 0.426
13 | MKMISYETLIA [DOCK10_Y1350_T1347M] | 0.752 | 1.24 | 2 | 0.784 | 0.659 | 0.566 | 0.634 | 0.629 | 0.467 | 0.948 | 0.468 | 0.581 | 0.888 | 0.485 | 0.65 | 0.421
14 | NEANKYQISVN [FGB_Y368] | 0.763 | 0.717 | 0.481 | 0.691 | 0.39 | 0.411 | 0.372 | 0.459 | 0.369 | 0.816 | 0.435 | 0.391 | 0.654 | 0.371 | 0.592 | 0.425
15 | NEKNIYGVPLM [BMPR2_Y247_R248G] | 0.808 | 0.785 | 0.478 | 0.616 | 0.431 | 1.7 | 0.511 | 0.624 | 3.26 | 0.717 | 4.93 | 6.04 | 0.627 | 2.83 | 19.6 | 3.45
